Results: patent US6855515

Molecular target: caspase-9 (UniProt P55211)
Assay: Ki printed in running text; no assay described

- Ki: 60 nM
Substance: Ac-DEVD-CHO, N-(N-Ac-Asp-Glu-Val)-3-amino-4-oxobutanoic acid (peptide)
